Measurements as given in patent publication US7297332B2, “Protease, a gene therefor and the use thereof” (Korean Research Institute of Bioscience and Biotechnology, priority 2000, dated 2007).

Assays:
[1] = tested on: albumin, casein, collagen, elastin and hemoglobin; assay: Activity of the protease on various substrates; format: biochemical; details: all the other substrates including hemoglobin
Experimental: In order to examine the degrading ability of the enzyme against various substrates, the enzyme reactions were performed on substrates such as albumin, casein, collagen, elastin and hemoglobin. […] In 24 hour reaction, all the other substrates including hemoglobin achieved at least 45.

[2] = Protein eluted from raw skin (leather deliming application); details: 0.5% of protease
Experimental: A 20 g of raw skin finely cut into pieces of suitable size and 14 ml of distilled water was mixed in a 50 ml test tube. Then, 0.5% sodium bisulfite and 0.5% ammonium sulfate on the basis of the weight of skin was added thereto and the mixture was incubated for 15 minutes at 26° C. Subsequently, 0.2% of detergent and 0.5% of deliming agent was added thereto and waited for 30 minutes and 1 hour, respectively, before measuring the amount of protein eluted from the skin. In the presence of the 0.5% of protease, the protein eluted amounted to 1054 mg/ml and 1062 mg/ml after 30 minutes and 60 minutes, respectively. In the absence of the protease, the protein eluted amounted to 304.5 mg/ml and 329.5 mg/ml after 30 minute and 60 minutes, respectively.

[3] = tested on: azocasein; assay: Effects of salts on the activity of the protease; format: biochemical; details: for relative activity: 37° C., 4 hours
Experimental: (§1) Enzyme activity of the protease was measured according to the method described by Braun & Shmitz (Braun, V. & Schmitz, G., Arch. Microbiol. 124, 55-61, 1980). A substrate solution was prepared by dissolving 0.24 g of azocasein in 10 ml of 50 mM phosphate buffer (pH 7.5). The 300 □ of the substrate solution was mixed with 100 □ of bacterial culture solution and reacted at 37° C. for 30 minutes. Then, 300 □ of 10% trichloride acetate was added to the reaction solution and incubated at ambient temperature for 1 hour. The reaction solution was centrifuged at 7,000 rpm until pellet and supernatant was separated substantially. After adding 30 0 of 10% sodium hydroxide (NaOH) to the supernatant, the absorbance was measured at 420 nm. The enzymatic titer was defined as 1 unit by the 1.0 fold increment of absorbance value.
In order to examine effects of salts on the activity of protease, the relative enzyme activity was measured at 37° C. for 4 hours in the presence of various concentrations of sodium chloride solution ranging from 0 to 1700 mM. The relative activity was measured according to the method described in Example 3(1). For comparison, the protease derived from Serratia marcescens SM6 was used as a control.

[4] = tested on: azocasein; assay: Effect of pH on the activity and stability of the protease; format: biochemical; details: for relative activity: 30 minutes
Experimental: as §1
In order to examine the pH-dependence of the protease of the invention, the inventors prepared various substrate solution with different pH. The each substrate solution was buffered with citrate-phosphate(pH 3.0 to 7.0), sodium phosphate(pH 7.0 to 9.0), Tris-HCl(pH 7.0 to 10.0), and glysine-caustic soda(pH 9.0 to 12.0), respectively. The relative protease activity was measured after mixing enzyme with each of the above substrate solution at 37° C. for 30 minutes. The measurement of the relative protease activity was followed by the method described in Example 3(1).

[5] = tested on: azocasein; assay: Effect of heat on the activity and stability of the protease; format: biochemical
Experimental: as §1
In order to examine the effect of heat on the activity and stability of the protease, the relative enzyme activity was measured at temperatures ranging from 4° C. to 80° C. The measurement of the activity was performed according to the method described in Example 3(1).

B1: protease: zinc-binding metalloprotease from Aranicola proteolyticus HY-3, amino acid sequence SEQ ID NO. 1, apparent molecular weight about 51.5 kDa (protein, listed as Aranicola proteolyticus)
chain: MQSTKKAIEITESSLAAASSAYNAVDDLLHYHERGNGIQVNGKDSFSTEQAGLFITRENQTWNGYKVFGQPVKLTFSFPDYKFSSTNVAGDTGLSKFSAEQQQQAKLSLQSWSDVANITFTEVGAGQKANITFGNYSQDRPGHYDYDTQAYAFLPNTIYQGQNLGGQTWYNVNQSNVKHPASEDYGRQTFTHEIGHALGLSHPGDYNAGEGNPTYRDASYAEDTREFSLMSYWSETNTGGDNGGHYAAAPLLDDISAIQHLYGANQTTRTGDTVYGFNSNTGRDFLSTTSNPQKVIFAAWDAGGNDTFDFSGYTANQRINLNEKSFSDVGGLKGNVSIAAGVTIENAIGGSGNDVIVGNAANNVLKGGAGNDVLFGGGGADELWGGAGKDTFVFSAVSDSAPGASDWIKDFQKGIDKIDLSFFNQGAQGGDQIHFVDHFSGAAGEALLSYNASNNVSDLALNIGGHQAPDILVKIVGQVDVATDFIV
modifications: BINDING (192) Zn binding site
notes: 1, apparent molecular weight about 51.5 kDa
- degrading ability (albumin in 24 hour reaction defined as 100) [1]: at least 45
- protein eluted from the skin ([2]; after 30 minutes): 1050 µg/mL
- protein eluted from the skin ([2]; after 60 minutes): 1060 µg/mL
- activity under high salt concentrations ([3]; high salt concentrations): retains high activity
- relative activity ([3]; salt concentration 0 mM NaCl): 100%
- relative activity ([3]; salt concentration 170 mM NaCl): 134%
- relative activity ([3]; salt concentration 340 mM NaCl): 173%
- relative activity ([3]; salt concentration 510 mM NaCl): 200%
- relative activity ([3]; salt concentration 680 mM NaCl): 215%
- relative activity ([3]; salt concentration 1020 mM NaCl): 203%
- relative activity ([3]; salt concentration 1360 mM NaCl): 196%
- relative activity ([3]; salt concentration 1700 mM NaCl): 155%
- pH of maximum activity ([4]; azocasein substrate): 8.0
- relative activity ([4]; pH 3.0, 37° C.): 43%
- relative activity ([4]; pH 4.0, 37° C.): 66%
- relative activity ([4]; pH 5.0, 37° C.): 73%
- relative activity ([4]; pH 5.5, 37° C.): 77%
- relative activity ([4]; pH 6.0, 37° C.): 79%
- relative activity ([4]; pH 7.0, 37° C.): 81%
- relative activity ([4]; pH 7.5, 37° C.): 83%
- relative activity ([4]; pH 8.0, 37° C.): 100%
- relative activity ([4]; pH 8.5, 37° C.): 99%
- relative activity ([4]; pH 9.0, 37° C.): 90%
- relative activity ([4]; pH 9.5, 37° C.): 80%
- relative activity ([4]; pH 10.0, 37° C.): 78%
- relative activity ([4]; pH 11.0, 37° C.): 76%
- relative activity ([4]; pH 12.0, 37° C.): 71%
- activity relative to maximum activity ([4]; pH of 5.0 to 12.0): at least 70%
- activity maintained at low temperature ([5]; 4° C. to 15° C., relative to maximum activity): about a half of the maximum activity
- temperature of maximum activity ([5]; measured from 4° C. to 80° C.): 37 °C
- relative activity ([5]; temperature 4 ° C.): 43%
- relative activity ([5]; temperature 10 ° C.): 45%
- relative activity ([5]; temperature 15 ° C.): 50%
- relative activity ([5]; temperature 20 ° C.): 76%
- relative activity ([5]; temperature 25 ° C.): 81%
- relative activity ([5]; temperature 30 ° C.): 93%
- relative activity ([5]; temperature 37 ° C.): 100%
- relative activity ([5]; temperature 45 ° C.): 28%
- relative activity ([5]; temperature 50 ° C.): 22%
- relative activity ([5]; temperature 60 ° C.): 20%
- relative activity ([5]; temperature 70 ° C.): 14%
- relative activity ([5]; temperature 80 ° C.): 3%
- Ea value (hydrolysis of azocasein), activation energy in Arrenius plot ([5]; temperatures between 4° C. and 37° C.): 2.43 kcal/mol
- relative activity ([5]; temperatures between 20° C. to 40° C.): at least 75%
